# Test results reported in US20240352111A1 (Regeneron, published 2024).
# Positions count from the first letter of the chain named. Read-outs that look alike come from different tables or passages of the source.
# T1: mArtemin-MMH (mouse)
# T1 chain: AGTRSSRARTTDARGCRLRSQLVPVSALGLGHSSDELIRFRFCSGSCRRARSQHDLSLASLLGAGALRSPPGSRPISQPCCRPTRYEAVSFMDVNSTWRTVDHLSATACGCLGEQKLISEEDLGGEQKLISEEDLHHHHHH
# T2: hArtemin-MMH (human)
# T2 chain: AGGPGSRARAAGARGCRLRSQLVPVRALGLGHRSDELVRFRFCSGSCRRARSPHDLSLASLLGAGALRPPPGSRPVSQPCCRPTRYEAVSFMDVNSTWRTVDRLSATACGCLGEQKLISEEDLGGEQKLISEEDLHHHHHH
# T3: MfArtemin-MMH (cynomolgous monkey (Macaca fascicularis))
# T3 construct: also called mfARTN.mmh; mfARTN (A108-G22).mmh
# T3 chain: T2 chain with A8P, V76I
# B1: H4H33335P (antibody, human IgG4 S228P, kappa, V domains shown)
# VH: EVQLVESGGGLVQPGGSLRLSCAASGFTFSSYDMHWVRQATGKGLEWVSTIDTAGDTYYPGSVKGRFTISRENAKNSLYLQMNSLRAGDTAVYYCARDGELELQGYFDLWGRGTLVTVSS
# VL: DIQMTQSPSSLSASVGDRVTITCRASQIISIYLNWYQQKPGKAPKLLIYAASSLQSGVPSRFSGSGSGTDFTLTISSLQPEDFATYYCQQSYTTPLTFGGGTKVEIKR
# notes: Fully human antibody; also called Artemin mAb; anti-ARTN antibody
# Assays:
# mArtemin-MMH [1] = target: T1, mArtemin-MMH; test: blocking ELISA, 150 pM msARTN.mmh binding to plate-coated hGFRa3.hFc
# mArtemin-MMH [2] = target: T1, mArtemin-MMH; test: SPR Biacore T200, mArtemin-MMH captured by anti-myc mAb, mAb injected, 25 C
# Protocol: (§1) The equilibrium dissociation constant (KD) for Artemin binding to each of Artemin monoclonal antibodies (mAbs) H4H33331P, H4H33335P, H4H33336P, and H4H33349P was determined using a real-time surface plasmon resonance Biacore T200 biosensor. All binding studies were performed in 10 mM HEPES, 150 mM NaCl, 3 mM EDTA, and 0.05% v/v Surfactant Tween-20, pH 7.4 (HBS-ET) running buffer at 25° C. The Biacore CM4 sensor chip surface was first derivatized by amine coupling with anti-myc mAb to capture hArtemin-MMH, MfArtemin-MMH, or mArtemin-MMH. Different concentrations of Artemin mAbs (60-2.2 nM, 3-fold serial dilution) prepared in […] running buffer were injected over the Artemin-captured surfaces for 3 min at a flow rate of 50 μL/min and their dissociation in HBS-ET running buffer was monitored for 5 minutes. At the end of each cycle, the Artemin-captured surfaces were regenerated using a 6 sec injection of 20 mM phosphoric acid.
# (§2) The association rate (kₐ) and dissociation rate (kd) were determined by fitting the real-time binding sensorgrams to a 1:1 binding model with mass transport limitation using Scrubber 2.0c curve-fitting software. Binding dissociation equilibrium constant (KD) and dissociative half-life (t½) were calculated from the kinetic rates as: KD (M)=kd/kₐ, and t_{1/2} (min)=[In2/(60*kd)].
# hArtemin-MMH [3] = target: T2, hArtemin-MMH; test: SPR Biacore T200, hArtemin-MMH captured by anti-myc mAb, mAb injected, 25 C
# Protocol: as §1, §2
# [4] = target: MfArtemin-MMH (cynomolgous monkey (Macaca fascicularis)); test: SPR Biacore T200, MfArtemin-MMH captured by anti-myc mAb, mAb injected, 25 C
# hArtemin-MMH [5] = target: T2, hArtemin-MMH; test: cell-based or functional assay
# mArtemin-MMH [6] = target: T1, mArtemin-MMH; test: cell-based or functional assay
# [7] = target: MfArtemin-MMH (cynomolgous monkey (Macaca fascicularis)); test: cell-based or functional assay
# [8] = target: MfArtemin-MMH (cynomolgous monkey (Macaca fascicularis)); test: blocking ELISA, 400 pM mfARTN.mmh binding to plate-coated hGFRa3.hFc
# hArtemin-MMH [9] = target: T2, hArtemin-MMH; test: blocking ELISA, 75 pM hARTN.mmh binding to plate-coated hGFRa3.hFc
# mArtemin-MMH [10] = target: T1, mArtemin-MMH; test: blocking ELISA, antibody blocks 150 pM msARTN.mmh binding to plate-coated hGFRa3.hFc
# Protocol: (§3) Experiments were carried out using the following procedures. Plates were coated with hGFRa3.hFc at 2 μg/ml in PBS on a 96-well microtiter plate at 4° C. overnight for all three assays. […] In other microtiter plates, a constant amount of either 75 pM hARTN.mmh, 400 pM mfARTN.mmh, or 150 pM msARTN.mmh were separately bound with anti-ARTN antibodies and an irrelevant IgG4 antibody control at a serial dilution series from 0.0017 nM to 100 nM in PBS+0.5% BSA. After a one-hour incubation, the mixture solutions were transferred to microtiter plates coated with hGFRa3.hFc. After one hour of incubation at RT, the wells were washed with PBST, and plate-bound ARTN was detected with an anti-penta-His antibody conjugated with horseradish peroxidase (HRP) (Qiagen). The plates were then developed using TMB substrate solution (BD Biosciences, #555214) according to manufacturer's recommendation and absorbance at 450 nm was measured on a Victor X5 plate reader.
# (§4) Binding data were analyzed using a sigmoidal dose-response model within Prism™ software (GraphPad). […] If the calculated IC50 value was below the LLOA, less than LLOA was reported. Percent blocking at 100 nM antibody was calculated based on the background-corrected binding signal observed at the highest antibody concentration tested using the formula listed below and reported for all tested antibodies: […]
# hArtemin-MMH [11] = target: T2, hArtemin-MMH; test: BLI (Octet HTX), mAb captured on AHC tips, artemin at 3.75 nM, 25 C
# Protocol: (§5) The entire experiment was performed at 25° C. in 10 mM HEPES, 150 mM NaCl, 3 mM EDTA, 0.02% NaN3 and 0.05% v/v Surfactant Tween-20, 1 mg/mL BSA, pH7.4 (HBS-EBT) buffer with the plate shaking at a speed of 1000 rpm. Different Artemin mAbs were first captured onto anti-human antibody (AHC) coated Octet biosensor tips (Fortebio Inc, #18-5064) by submerging the biosensor tips for 40 seconds in wells containing 2 μg/mL of Artemin mAb. […] All the Artemin and Artemin mAb samples were prepared in HBS-EBT buffer. The real-time binding response was monitored during the entire course of the experiment and the binding response at the end of every step was recorded.
# MfArtemin-MMH [12] = target: T3, MfArtemin-MMH; test: as above
# Protocol: as §5
# mArtemin-MMH [13] = target: T1, mArtemin-MMH; test: as above
# Protocol: as §5
# hArtemin-MMH [14] = target: T2, hArtemin-MMH; test: blocking ELISA, antibody blocks 75 pM hARTN.mmh binding to plate-coated hGFRa3.hFc
# Protocol: as §3, §4
# MfArtemin-MMH [15] = target: T3, MfArtemin-MMH; test: cell-based or functional assay
# hArtemin-MMH [16] = target: T2, hArtemin-MMH; test: BLI (Octet HTX), mAb captured on AHC tips, artemin at 30 nM, 25 C
# Protocol: as §5
# MfArtemin-MMH [17] = target: T3, MfArtemin-MMH; test: as above
# Protocol: as §5
# mArtemin-MMH [18] = target: T1, mArtemin-MMH; test: as above
# Protocol: as §5
# MfArtemin-MMH [19] = target: T3, MfArtemin-MMH; test: blocking ELISA, antibody blocks 400 pM mfARTN.mmh binding to plate-coated hGFRa3.hFc
# Protocol: as §3, §4
# hArtemin-MMH [20] = target: T2, hArtemin-MMH; test: BLI (Octet HTX), mAb captured on AHC tips, artemin at 15 nM, 25 C
# Protocol: as §5
# MfArtemin-MMH [21] = target: T3, MfArtemin-MMH; test: as above
# Protocol: as §5
# mArtemin-MMH [22] = target: T1, mArtemin-MMH; test: as above
# Protocol: as §5
# hArtemin-MMH [23] = target: T2, hArtemin-MMH; test: BLI (Octet HTX), mAb captured on AHC tips, artemin at 7.5 nM, 25 C
# Protocol: as §5
# MfArtemin-MMH [24] = target: T3, MfArtemin-MMH; test: as above
# Protocol: as §5
# mArtemin-MMH [25] = target: T1, mArtemin-MMH; test: as above
# Protocol: as §5
# MfArtemin-MMH [26] = target: T3, MfArtemin-MMH; test: SPR Biacore T200, MfArtemin-MMH captured by anti-myc mAb, mAb injected, 25 C
# Protocol: as §1, §2
molecule,measurement,setting,value
Isotype Control mAb (antibody),% Blocking with 100 nM Ab,mArtemin-MMH [1],-31%
same,60 nM Artemin mAb Bound (RU),mArtemin-MMH [2],0 RU
same,60 nM Artemin mAb Bound (RU),hArtemin-MMH [3],0 RU
same,60 nM Artemin mAb Bound (RU),[4],0 RU
same,"Max inhibition (%), SRE-luciferase reporter, 500 pM hArtemin",hArtemin-MMH [5],9%
same,"Max inhibition (%), SRE-luciferase reporter, 1 nM mArtemin",mArtemin-MMH [6],1%
same,"Max inhibition (%), SRE-luciferase reporter, 3 nM mfArtemin",[7],10%
same,% Blocking with 100 nM Ab,[8],-28%
same,% Blocking with 100 nM Ab,hArtemin-MMH [9],-3%
B1,% Blocking with 100 nM Ab,mArtemin-MMH [10],63%
same,IC50,mArtemin-MMH [10],0.0876 nM
same,60 nM Artemin mAb Bound (RU),mArtemin-MMH [2],3 RU
same,Artemin Binding Response (nm),hArtemin-MMH [11],0.02 nm
same,Artemin Binding Response (nm),MfArtemin-MMH [12],0 nm
same,Artemin Binding Response (nm),mArtemin-MMH [13],0.02 nm
same,60 nM Artemin mAb Bound (RU),hArtemin-MMH [3],4 RU
same,Kd,hArtemin-MMH [3],2.22 nM
same,koff,hArtemin-MMH [3],0.00019 s⁻¹
same,kon,hArtemin-MMH [3],85300 M⁻¹ s⁻¹
same,t½,hArtemin-MMH [3],1.02 h
same,% Blocking with 100 nM Ab,hArtemin-MMH [14],65%
same,IC50,hArtemin-MMH [14],0.505 nM
same,"Max inhibition (%), SRE-luciferase reporter, 500 pM hArtemin",hArtemin-MMH [5],100%
same,"Max inhibition (%), SRE-luciferase reporter, 3 nM mfArtemin",MfArtemin-MMH [15],100%
same,"Max inhibition (%), SRE-luciferase reporter, 1 nM mArtemin",mArtemin-MMH [6],95%
same,Artemin Binding Response (nm),hArtemin-MMH [16],0.11 nm
same,Artemin Binding Response (nm),MfArtemin-MMH [17],0.09 nm
same,Artemin Binding Response (nm),mArtemin-MMH [18],0.08 nm
same,% Blocking with 100 nM Ab,MfArtemin-MMH [19],71%
same,IC50,MfArtemin-MMH [19],0.233 nM
same,Artemin Binding Response (nm),hArtemin-MMH [20],0.11 nm
same,Artemin Binding Response (nm),MfArtemin-MMH [21],0.04 nm
same,Artemin Binding Response (nm),mArtemin-MMH [22],0.07 nm
same,Artemin Binding Response (nm),hArtemin-MMH [23],0.07 nm
same,Artemin Binding Response (nm),MfArtemin-MMH [24],0 nm
same,Artemin Binding Response (nm),mArtemin-MMH [25],0.05 nm
same,60 nM Artemin mAb Bound (RU),MfArtemin-MMH [26],3 RU
